Reference: patent publication US10617701B2, “Nutritional compositions containing phosphatidylethanolamine, sphingomyelin and docosahexaenoic acid” (Mead Johnson Nutrition Company, priority 2015, dated 2020)

Test system: embryonic mouse cortical cells
Test: Functional neuronal maturation of cortical networks on microelectrode arrays (MEA recording, chronic treatment)
Format: cell-based
Settings: cortical networks on MEAs
Experimental: Cortical cells were grown on multi-well microelectrode arrays (MEAs) and treated with 10 different experimental series, including different combinations of test agents (PE, SM, LF and DHA) and the activity was recoded at 4 different time points during the 4 weeks of functional neuronal maturation Cells growing on glass slides were treated in parallel for morphological and cell population analysis. These experiments aimed to elucidate whether the test compounds affect the functional and morphological neuronal maturation […] (see FIG. 1). […]
Primary cell culture for MEA recordings: In brief, frontal cortex tissue was harvested from embryonic day […] NMRI mice. […] Cultures on MEAs were incubated at 37° C. in a 10% CO2 atmosphere until ready for use, which usually is four weeks to three months after seeding. […]
Multichannel Recording: After establishing a stable activity pattern after 4 weeks, the neuronal networks on MEA chips are employed for substance testing. […] The signals routinely recorded by these neurochips are located in a range of 15-1800 […] . […]

B1: lactoferrin (protein, UniProt P24627 20-708, looked up)
Lactotransferrin: APRKNVRWCTISQPEWFKCRRWQWRMKKLGAPSITCVRRAFALECIRAIAEKKADAVTLDGGMVFEAGRDPYKLRPVAAEIYGTKESPQTHYYAVAVVKKGSNFQLDQLQGRKSCHTGLGRSAGWIIPMGILRPYLSWTESLEPLQGAVAKFFSASCVPCIDRQAYPNLCQLCKGEGENQCACSSREPYFGYSGAFKCLQDGAGDVAFVKETTVFENLPEKADRDQYELLCLNNSRAPVDAFKECHLAQVPSHAVVARSVDGKEDLIWKLLSKAQEKFGKNKSRSFQLFGSPPGQRDLLFKDSALGFLRIPSKVDSALYLGSRYLTTLKNLRETAEEVKARYTRVVWCAVGPEEQKKCQQWSQQSGQNVTCATASTTDDCIVLVLKGEADALNLDGGYIYTAGKCGLVPVLAENRKSSKHSSLDCVLRPTEGYLAVAVVKKANEGLTWNSLKDKKSCHTAVDRTAGWNIPMGLIVNQTGSCAFDEFFSQSCAPGADPKSRLCALCAGDDQGLDKCVPNSKEKYYGYTGAFRCLAEDVGDVAFVKNDTVWENTNGESTADWAKNLNREDFRLLCLDGTRKPVTEAQSCHLAVAPNHAVVSRSDRAAHVKQVLLHQQALFGKNGKNCPDKFCLFKSETKNLLFNDNTECLAKLGGRPTYEEYLGTEYVTAIANLKKCSTSPLLEACAFLTR
acute effect on neuronal network activity in vitro: acutely affect neuronal network activity
